Key:
[1] = Appearance (visual analysis, illuminator method); type: physicochemical
Method: Appearance of the insulin/rHuPH20 formulations was determined by qualitative visual analysis of the insulin/rHuPH20 solution in a type I glass vial. The evaluation of the coloration and clarity of the solution was determined by comparison to that of USP (or equivalent) sterile water for irrigation (SWFI). The aqueous solution was determined to be clear if its clarity was the same as that of the SWFI. The aqueous solution was determined to be colorless if it had the appearance of the SWFI. Vials were tested at room temperature and care was taken not to cause unnecessary turbulence and/or air bubbles in the solutions while swirling and/or inverting. If necessary, vials were wiped with non-shedding or lint-free wipes and 70% ethanol prior to testing. The procedure was as follows: A directional light source with a 150 W or greater lamp was turned on. The samples were prepared in a hood. Samples to be tested were gently inverted to ensure homogeneity prior to transferring >0.5 mL using aseptic technique to a Type 1 glass vial for testing. A SWFI sample was prepared in the same way. […] Color, clarity and the presence and extent of any visible particles and/or foreign matter were recorded. […]
In this method, the degree of clarity and coloration of liquids were evaluated to ensure (visually) product quality against the applicable appearance specifications. […]

[2] = cited from earlier work
[3] = RP-HPLC: insulin percent purity; type: physicochemical; conditions: for Percent of insulin main peak: 2-8° C.
Method: For insulin, 20 μL was injected for each HPLC run.
The data were processed using Design-Expert® 7.0 (StatEase) and the “historical data” feature. Insulin percent purity was expressed as the percent of main insulin versus all insulin species.

regular insulin: mature human insulin, SEQ ID NOS: 103 and 104
time tested without precipitates ([1]; NaCl 80 mM or less, pH 7.6): greater than 15 months
time to form precipitates ([1]; NaCl greater than 80 mM, pH 7.0): ≤ 1 week
plasma half-life ([2]; following subcutaneous administration): about 1.5 hours
Onset ([2]; in vivo): 30 min
Peak ([2]; in vivo): 1 to 3 h
Percent of insulin main peak ([3]; 50 mM NaCl, pH 7.0, 0 months): 97.64%
Percent of insulin main peak ([3]; 50 mM NaCl, pH 7.0, 0.25 months): 97.59%
Percent of insulin main peak ([3]; 50 mM NaCl, pH 7.0, 0.5 months): 97.50%
Percent of insulin main peak ([3]; 50 mM NaCl, pH 7.0, 1 month): 97.44%
Percent of insulin main peak ([3]; 50 mM NaCl, pH 7.0, 3 months): 97.24%
Percent of insulin main peak ([3]; 50 mM NaCl, pH 7.0, 5 months): 97.73%
Percent of insulin main peak ([3]; 50 mM NaCl, pH 7.0, 9 months): 97.20%
Percent of insulin main peak ([3]; 50 mM NaCl, pH 7.2, 0 months): 97.64%
Percent of insulin main peak ([3]; 50 mM NaCl, pH 7.2, 0.25 months): 97.59%
Percent of insulin main peak ([3]; 50 mM NaCl, pH 7.2, 0.5 months): 97.56%
Percent of insulin main peak ([3]; 50 mM NaCl, pH 7.2, 1 month): 97.46%
Percent of insulin main peak ([3]; 50 mM NaCl, pH 7.2, 3 months): 97.47%
Percent of insulin main peak ([3]; 50 mM NaCl, pH 7.2, 5 months): 97.75%
Percent of insulin main peak ([3]; 50 mM NaCl, pH 7.2, 9 months): 97.27%
Percent of insulin main peak ([3]; 50 mM NaCl, pH 7.4, 0 months): 97.58%
Percent of insulin main peak ([3]; 50 mM NaCl, pH 7.4, 0.25 months): 97.54%
Percent of insulin main peak ([3]; 50 mM NaCl, pH 7.4, 0.5 months): 97.48%
Percent of insulin main peak ([3]; 50 mM NaCl, pH 7.4, 1 month): 97.47%
Percent of insulin main peak ([3]; 50 mM NaCl, pH 7.4, 3 months): 97.45%
Percent of insulin main peak ([3]; 50 mM NaCl, pH 7.4, 5 months): 97.74%
Percent of insulin main peak ([3]; 50 mM NaCl, pH 7.4, 9 months): 97.27%
Percent of insulin main peak ([3]; 50 mM NaCl, pH 7.6, 0 months): 97.65%
Percent of insulin main peak ([3]; 50 mM NaCl, pH 7.6, 0.25 months): 97.58%
Percent of insulin main peak ([3]; 50 mM NaCl, pH 7.6, 0.5 months): 97.33%
Percent of insulin main peak ([3]; 50 mM NaCl, pH 7.6, 1 month): 97.44%
Percent of insulin main peak ([3]; 50 mM NaCl, pH 7.6, 3 months): 97.35%
Percent of insulin main peak ([3]; 50 mM NaCl, pH 7.6, 5 months): 97.66%
Percent of insulin main peak ([3]; 50 mM NaCl, pH 7.6, 9 months): 97.34%
Percent of insulin main peak ([3]; 80 mM NaCl, pH 7.0, 0 months): 97.65%
Percent of insulin main peak ([3]; 80 mM NaCl, pH 7.0, 0.25 months): 97.50%
Percent of insulin main peak ([3]; 80 mM NaCl, pH 7.0, 0.5 months): 97.30%
Percent of insulin main peak ([3]; 80 mM NaCl, pH 7.0, 1 month): 97.20%
Percent of insulin main peak ([3]; 80 mM NaCl, pH 7.0, 5 months): 97.81%
Percent of insulin main peak ([3]; 80 mM NaCl, pH 7.0, 9 months): 96.18%
Percent of insulin main peak ([3]; 80 mM NaCl, pH 7.2, 0 months): 97.57%
Percent of insulin main peak ([3]; 80 mM NaCl, pH 7.2, 0.25 months): 97.59%
Percent of insulin main peak ([3]; 80 mM NaCl, pH 7.2, 0.5 months): 97.30%
Percent of insulin main peak ([3]; 80 mM NaCl, pH 7.2, 1 month): 97.45%
Percent of insulin main peak ([3]; 80 mM NaCl, pH 7.2, 3 months): 97.34%
Percent of insulin main peak ([3]; 80 mM NaCl, pH 7.2, 5 months): 97.64%
Percent of insulin main peak ([3]; 80 mM NaCl, pH 7.4, 0 months): 97.56%
Percent of insulin main peak ([3]; 80 mM NaCl, pH 7.4, 0.25 months): 97.61%
Percent of insulin main peak ([3]; 80 mM NaCl, pH 7.4, 0.5 months): 97.51%
Percent of insulin main peak ([3]; 80 mM NaCl, pH 7.4, 1 month): 97.43%
Percent of insulin main peak ([3]; 80 mM NaCl, pH 7.4, 3 months): 97.43%
Percent of insulin main peak ([3]; 80 mM NaCl, pH 7.4, 5 months): 97.75%
Percent of insulin main peak ([3]; 80 mM NaCl, pH 7.4, 9 months): 97.29%
Percent of insulin main peak ([3]; 80 mM NaCl, pH 7.6, 0 months): 97.63%
Percent of insulin main peak ([3]; 80 mM NaCl, pH 7.6, 0.25 months): 97.62%
Percent of insulin main peak ([3]; 80 mM NaCl, pH 7.6, 0.5 months): 97.52%
Percent of insulin main peak ([3]; 80 mM NaCl, pH 7.6, 1 month): 97.37%
Percent of insulin main peak ([3]; 80 mM NaCl, pH 7.6, 3 months): 97.64%
Percent of insulin main peak ([3]; 80 mM NaCl, pH 7.6, 5 months): 97.67%
Percent of insulin main peak ([3]; 80 mM NaCl, pH 7.6, 9 months): 97.31%
Percent of insulin main peak ([3]; 110 mM NaCl, pH 7.0, 0 months): 97.64%
Percent of insulin main peak ([3]; 110 mM NaCl, pH 7.0, 0.25 months): 97.31%
Percent of insulin main peak ([3]; 110 mM NaCl, pH 7.0, 0.5 months): 97.57%
Percent of insulin main peak ([3]; 110 mM NaCl, pH 7.0, 1 month): 96.64%
Percent of insulin main peak ([3]; 110 mM NaCl, pH 7.0, 3 months): 96.10%
Percent of insulin main peak ([3]; 110 mM NaCl, pH 7.0, 5 months): 97.79%
Percent of insulin main peak ([3]; 110 mM NaCl, pH 7.2, 0 months): 97.62%
Percent of insulin main peak ([3]; 110 mM NaCl, pH 7.2, 0.25 months): 97.46%
Percent of insulin main peak ([3]; 110 mM NaCl, pH 7.2, 0.5 months): 97.35%
Percent of insulin main peak ([3]; 110 mM NaCl, pH 7.2, 3 months): 97.49%
Percent of insulin main peak ([3]; 110 mM NaCl, pH 7.2, 5 months): 97.61%
Percent of insulin main peak ([3]; 110 mM NaCl, pH 7.2, 9 months): 95.91%
Percent of insulin main peak ([3]; 110 mM NaCl, pH 7.4, 0 months): 97.65%
Percent of insulin main peak ([3]; 110 mM NaCl, pH 7.4, 0.25 months): 97.58%
Percent of insulin main peak ([3]; 110 mM NaCl, pH 7.4, 0.5 months): 97.39%
Percent of insulin main peak ([3]; 110 mM NaCl, pH 7.4, 1 month): 97.36%
Percent of insulin main peak ([3]; 110 mM NaCl, pH 7.4, 3 months): 97.36%
Percent of insulin main peak ([3]; 110 mM NaCl, pH 7.4, 5 months): 97.79%
Percent of insulin main peak ([3]; 110 mM NaCl, pH 7.4, 9 months): 96.91%
Percent of insulin main peak ([3]; 110 mM NaCl, pH 7.6, 0 months): 97.58%
Percent of insulin main peak ([3]; 110 mM NaCl, pH 7.6, 0.25 months): 97.57%
Percent of insulin main peak ([3]; 110 mM NaCl, pH 7.6, 0.5 months): 97.60%
Percent of insulin main peak ([3]; 110 mM NaCl, pH 7.6, 1 month): 97.52%
Percent of insulin main peak ([3]; 110 mM NaCl, pH 7.6, 3 months): 97.42%
Percent of insulin main peak ([3]; 110 mM NaCl, pH 7.6, 5 months): 97.61%
Percent of insulin main peak ([3]; 110 mM NaCl, pH 7.6, 9 months): 97.31%
Percent of insulin main peak ([3]; 140 mM NaCl, pH 7.0, 0 months): 97.65%
Percent of insulin main peak ([3]; 140 mM NaCl, pH 7.0, 0.25 months): 97.15%
Percent of insulin main peak ([3]; 140 mM NaCl, pH 7.0, 1 month): 96.39%
Percent of insulin main peak ([3]; 140 mM NaCl, pH 7.0, 3 months): 96.16%
Percent of insulin main peak ([3]; 140 mM NaCl, pH 7.0, 9 months): 95.17%
Percent of insulin main peak ([3]; 140 mM NaCl, pH 7.2, 0 months): 97.56%
Percent of insulin main peak ([3]; 140 mM NaCl, pH 7.2, 0.25 months): 97.37%
Percent of insulin main peak ([3]; 140 mM NaCl, pH 7.2, 1 month): 96.62%
Percent of insulin main peak ([3]; 140 mM NaCl, pH 7.2, 3 months): 96.60%
Percent of insulin main peak ([3]; 140 mM NaCl, pH 7.2, 9 months): 95.49%
Percent of insulin main peak ([3]; 140 mM NaCl, pH 7.4, 0 months): 97.64%
Percent of insulin main peak ([3]; 140 mM NaCl, pH 7.4, 0.25 months): 97.57%
Percent of insulin main peak ([3]; 140 mM NaCl, pH 7.4, 0.5 months): 97.33%
Percent of insulin main peak ([3]; 140 mM NaCl, pH 7.4, 1 month): 97.23%
Percent of insulin main peak ([3]; 140 mM NaCl, pH 7.4, 3 months): 97.38%
Percent of insulin main peak ([3]; 140 mM NaCl, pH 7.4, 5 months): 97.73%
Percent of insulin main peak ([3]; 140 mM NaCl, pH 7.4, 9 months): 96.10%
Percent of insulin main peak ([3]; 140 mM NaCl, pH 7.6, 0 months): 97.64%
Percent of insulin main peak ([3]; 140 mM NaCl, pH 7.6, 0.25 months): 97.61%
Percent of insulin main peak ([3]; 140 mM NaCl, pH 7.6, 0.5 months): 97.41%
Percent of insulin main peak ([3]; 140 mM NaCl, pH 7.6, 1 month): 97.51%
Percent of insulin main peak ([3]; 140 mM NaCl, pH 7.6, 3 months): 97.35%
Percent of insulin main peak ([3]; 140 mM NaCl, pH 7.6, 5 months): 97.56%
Percent of insulin main peak ([3]; 140 mM NaCl, pH 7.6, 9 months): 97.07%
insulin main peak percentage ([3]; long term storage at 2-8° C., […] m-cresol, 0.2% phenol): about 97%

Reference: US20130011378A1, “Stable formulations of a hyaluronan-degrading enzyme” (priority 2011, published 2013)
